Paper PMC6748439, “Structural Insights into Curli CsgA Cross-β Fibril Architecture Inspire Repurposing of Anti-amyloid Compounds as Anti-biofilm Agents” (PLoS Pathogens, 2019)

How the values were obtained:
[1] = target: CsgA, the major curli subunit (recombinant, C-terminal His6-tag) (Escherichia coli) (UniProt P28307); test: SEC-MALS; freshly purified CsgA concentrated to 1.8 mg/ml, Superdex 75 10/300, miniDAWN TREOS; hexamer beside a majority of monomer
[2] = target: the molecule itself; test: crystal structure; peptides with free (unmodified) termini, hanging drop, 293 K; micro-crystals, data collected at 100 K; LNIYQY and TASNSS crystals grown in a mixture with TAIVVQ of CsgB, which was not present in the crystals

Molecule	stoichiometry N [1]	binding result [2]
CsgA, the major curli subunit (recombinant, C-terminal His6-tag) (from UniProt P28307 21-151) (natural protein)	6	–
LNIYQY (CsgA residues 45-50 (R1 repeat), numbered on UniProt P28307; Unmodified termini for crystallography; in the seeding assay Ac-LNIYQY-NH2, in the ThT assay with D-peptides capped at the C-terminus; also called R1 segment 45LNIYQY50; source: synthetic peptide, bought: GL Biochem (Shanghai) Ltd) [CsgA segment 45LNIYQY50 (R1 repeat)]	–	binds
IYQYGG (CsgA residues 47-52 (R1 repeat), numbered on UniProt P28307; Unmodified termini for crystallography; in the seeding assay Ac-IYQYGG-NH2; also called R1 segment 47IYQYGG52; source: synthetic peptide, bought: GL Biochem (Shanghai) Ltd) [CsgA segment 47IYQYGG52 (R1 repeat)]	–	binds
VTQVGF (Unmodified termini for crystallography; in the seeding assay Ac-VTQVGF-NH2, in the ThT assay with D-peptides capped at the C-terminus; source: synthetic peptide, bought: GL Biochem (Shanghai) Ltd) [CsgA segment 137VTQVGF142 (R5 repeat)]	–	binds
TASNSS (Unmodified termini for crystallography; source: synthetic peptide, bought: GL Biochem (Shanghai) Ltd) [CsgA segment 129TASNSS134 (R4-R5 loop)]	–	binds
